The record followed here is patent US8124742.

The experiment deals with T1, human Rh(D) antigen on Rh(D)-positive red blood cells (human, UniProt Q02161 2-417).
T1 construct: whole, on cells; also called wt; wild type Rh(D)
T1 sequence (looked up): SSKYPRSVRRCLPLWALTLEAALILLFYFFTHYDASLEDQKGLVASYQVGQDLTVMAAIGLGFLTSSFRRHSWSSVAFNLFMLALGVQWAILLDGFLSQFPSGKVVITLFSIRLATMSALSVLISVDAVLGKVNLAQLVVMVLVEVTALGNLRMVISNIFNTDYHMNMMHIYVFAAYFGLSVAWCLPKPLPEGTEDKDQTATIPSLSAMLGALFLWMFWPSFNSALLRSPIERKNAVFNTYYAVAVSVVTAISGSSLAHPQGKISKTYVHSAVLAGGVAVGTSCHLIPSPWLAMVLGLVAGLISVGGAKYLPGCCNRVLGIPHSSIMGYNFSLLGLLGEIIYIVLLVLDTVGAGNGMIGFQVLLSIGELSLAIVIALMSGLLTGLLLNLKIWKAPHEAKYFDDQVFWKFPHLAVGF
Kind of experiment: agglutination, anti-M13. The method, then: The binding of anti-Rh(D) Fab/phage or soluble Fab molecules to normal or partial Rh(D) antigens was assessed by indirect agglutination assays as described (Siegel et al., 1994, Blood 83:2334; Siegel et al., 1997, J. Immunol. Meth. 206: 73). […] Following a one-hour incubation at 37° C., the RBCs were washed 3 times with 2 ml of cold PBS to remove unbound antibody. The resulting RBC pellets were resuspended in 100 μl of a 10 μg/ml solution of sheep anti-M13 antibody (5 Prime-3 Prime, Boulder, Colo.) for Fab/phage experiments or goat anti-human κ or λ light chain antibody (Tago, Burlingame, Calif.) for $\gamma_1\kappa$ or $\gamma_1\lambda$ soluble Fab experiments, respectively. The RBC suspensions were transferred to the round-bottomed wells of a 96-well microplate and left undisturbed for 2 hours. Negative reactions show sharp ~2 millimeter diameter RBC spots whereas the RBCs in agglutinated wells form a thin carpet coating the entire floor of the well (Siegel et al., 1997, J. Immunol. Meth. 206:73). Agglutination titers for recombinant antibodies were determined by performing serial 2-fold dilutions in 1% BSA/PBS.
Fifty-six randomly chosen colonies were selected, and monoclonal Fab/phage preparations were separately produced from each of these individual colonies, using the methods described herein in Example 1. Rh(D) specificity was determined by indirect agglutination using anti-M13 antibody, as described herein in Examples 1 and 2.

B1: SH20 (Fab, V domains shown)
VH: VQLLEESGGGVVQPGRSLRLSCAASGFTFRSYAMHWVRQAPGKGLEWVAVISYDGSTIYYADSVKGRFTISRANSKNTLFLQMNSLRTEDTAVYYCTRGGFYYDSSGYYGLRHYFDYWGQGTLVTVSS
VL: AELTQSPFSLSASVGDRVTITCRASQSISRSLNWYQHKPGEAPKLLIYAASSLQRGVPPRFSGSGSGTDFTLTISSLQPEDFATYFCQQSVRIPYSFGQGTKLEIKR
notes: Fab on M13 phage
With B1, the binding result is given as “binds”.

B2: SH24 (Fab, V domains shown)
VH: EVQLLESGGGVAQPGRSLRLSCVASGFSLRSYGMHWVRQAPGKGLEWVADIWFDGSNKDYADSVKGRFTISRDNSKNTLYLQMNSLRAEDTAVYYCARDWRVRAFSSGWLSAFDIWGQGTMVTVSS
VL: AELTQSPSSLSASVGDRVTITCRASQSISTYLNWYQQRPGKAPNLLIYAASTLQRGVPSRFTGSGSGTDFTLTISSLQPEDFATYYCQQSYTTLWTFGQGTKMEIRR
notes: Fab on M13 phage
With B2, the binding result is reported as “binds”.

B3: SH08 (Fab, V domains shown)
VH: EVQLLESGGGVVQPGRSLRLSCAVSGFTLTNYGMHWVRQAPGKGLEWVAHVWYDGSKTEYADSVKGRFAVSRDKSKNTLFLQMNSLTAEDTAIYYCARERREKVYILFYSWLDRWGQGTLVTVSS
VL: AELTQSPSSLAASVGDRVTITCRANQTIRTSLNWYQQRPGKAPNLLIYGASRLHSGVPSRFSGGISGADFTLTISSLQPEDFATYYCQQTYGYSRTFGQGTKVDIKR
notes: Fab on M13 phage; also called SH8
As for B3, the binding result is reported as “binds”.

B4: SH30 (Fab, V domains shown)
VH: EVQLLESGGGVVQPGRSLRLSCAVSGFTLTNYGMHWVRQAPGKGLEWVAHVWYDGSKTEYADSVKGRFAVSRDKSKNTLFLQMNSLTAEDTAIYYCARERREKVYILFYSWLDRWGQGTLVTVSS
VL: AELTQSPSSLSASVGDRVTITCRASQSIRRSLNWYQQSPGKTPKLLIYAASSLQSGVPSRFSGSGSGTDFTLTISSLQPEDFATYYCQQSYSTLTFGGGTKVEIKR
notes: Fab on M13 phage
On to B4, for which the binding result is recorded as “binds”.

B5: SH26 (Fab, V domains shown)
VH: EVQLLESGGGVVQPGRSLRLSCVVSGFTFNNYGMHWVRQAPGKGLEWVAVIWFDGSNKYYADSVKGRFTISRDNSKNTLYLQMNSLRAEDTAVYYCARENQIKLWSRYLYYFDYWGQGTLVTVSS
VL: AELTQSPSSLSASVGDRVTITCRASQSISSYLNWYQQKPGKAPKLLIYAASSLQSGVPSRFSGSGSGTDFTLTISSLQPEDFATYYCQQSYSFRRYSFGQGTKLEIKR
notes: Fab on M13 phage
As to B5, the binding result is recorded as “binds”.

B6: SH34 (Fab, V domains shown)
VH: EVQLLESGGGVVQPGRSLRLSCAASGFSFSSYGMHWVRQAPGKGLEWVAVISYDGTNKYFADSVKGRFTISRDNSKKTLYLQMTSLRPEDTAVYFCANLRGEVTRRASVPLDIWGQGTMVTVSS
VL: AELTQSPSSLSASVGDRVTITCRASQSISSYLNWYQQKPGKAPKLLIYAASGLQSGVPSRFSGSGSGTDFTLTISSLQPEDFATYYCQQSYSTPPYTFGQGTKLEIKR
notes: Fab on M13 phage
Take B6: the binding result is “binds”.

B7: SH14 (Fab, V domains shown)
VH: EVQLLESGGGVVQPGRSLRLSCAASGFTFSTYGMHWVRQAPGKGLEWVAVIWFDGSNKEYADSVKGRFTISRDNSKNTLYLQMNSLRAEDTAVYYCAREEVVRGVILWSRKFDYWGQGTLVTVSS
VL: AELTQSPSSLSASVGDRVTITCRASQNIRRSLNWYQHKPGRAPRLLIYAASTLQSGVPSRFRGSGSGTDFTLTINSLQPADFATYYCQQSSNTPWTFGHGTKVEIKR
notes: Fab on M13 phage
On to B7, for which the binding result is “binds”.

B8: SH21 (Fab, V domains shown)
VH: EVQLLESGGGVVQPGRSLRLSCAASGFTFSTYGMHWVRQAPGKGLEWVAVIWFDGSNKEYADSVKGRFTVSRDNSKNTLYLQMNSLRAEDTAVYYCAREEVVRGVILWSRKFDYWGQGTLVTVSS
VL: AELTQSPSFLSASVGDRVTITCRASQGIRSYLAWYQQKPGKAPKLLIYAASTLQSGVPSRFSGSGSGTEFTLTIASLQPDDFATYYCQQLNNYPPFTFGPGTKVDIKR
notes: Fab on M13 phage
Take B8: the binding result was “binds”.

B9: SH25 (Fab, V domains shown)
VH: VQLLEESGGGVVQPGRSLRLACAASGFSFRSYGMHWVRQAPGRGLEWVAFTWFDGSNKYYVDSVKGRFTISRDNSKNTLYLEMNSLRVDDTAVYYCAREAPMLRGISRYYYAMDVWGPGTTVTVSS
VL: AELTQSPSSLSASVGDRVTITCRASQNIRRSLNWYQQKPGKAPKLLIYAASSLQSGVPSRFSGSGSGTDFTLTISSLQPEDFATYYCQQSSNTPWTFGQGTKVEIKR
notes: Fab on M13 phage
Regarding B9, the binding result is on record as “binds”.

B10: SH12 (Fab, V domains shown)
VH: EVQLLESGGGVVQPGRSLRLSCAASGFTFSTYGMHWVRQAPGKGLEWVAVIWFDGSNKEYADSVKGRFTVSRDNSKNTLYLQMNSLRAEDTAVYYCAREEVVRGVILWSRKFDYWGQGTLVTVSS
VL: AELTQSPFSLSASVGDRVTITCRASHNIYRSLNWFQHKPGEAPKLLVYAASSLQRGVPTRFSGSGSGTDFTLTISSLQPEDSATYFCQQSVTFPYTFGQGTKLEIRR
notes: Fab on M13 phage
With B10, the binding result is recorded as “binds”.

B11: SH04 (Fab, V domains shown)
VH: EVQLLESGGGVVQPGRSLRLSCAASGFTFSTYGMHWVRQAPGKGLEWVAVIWFDGSNKEYADSVKGRFTISRDNSKNTLYLQMNSLRAEDTAVYYCAREEVVRGVILWSRKFDYWGQGTLVTVSS
VL: AELTQSPSSLSASVGDRVTITCRASQNIRRSLNWYQQKPGKAPKLLIYAASSLQSGVPSRFSGSGSGTDFTLTISSLQPEDFATYYCQQSSNTPWTFGQGTKVEIKR
notes: Fab on M13 phage
B11: the binding result is “binds”.

B12: SH18 (Fab, V domains shown)
VH: EVQLLESGGGVVQPGRSLRLSCAASGFTFRSYAMHWVRQAPGKGLEWVAATAYDGKNKYYADSVKGRFTISRDNSMNTLFLQMNSLRAEDTAVFYCARGGFYYDSSGYYGLRHYFDSWGQGTLVTVSS
VL: AELTQSPSSLSASVGDRVTITCRASQSISIALNWYQQRPGKAPKLLMYATSTLQSGVPSRFSGSGSGTDFTLTISSLQPEDFATYYCQQYYNKPTFGPGTKVDIKR
notes: Fab on M13 phage
On to B12, for which the binding result is “binds”.

B13: SH16 (Fab, V domains shown)
VH: EVQLLESGGGVVQPGRSLRLSCAASGFTFSSYGMHWVRQAPGRGLEWVALIWYDGGNKEYADSVKGRFSISRDNSKNTLYLQVNSLRADDTAVYYCARDQRAAAGIFYYSRMDVWGQGTTVTVSS
VL: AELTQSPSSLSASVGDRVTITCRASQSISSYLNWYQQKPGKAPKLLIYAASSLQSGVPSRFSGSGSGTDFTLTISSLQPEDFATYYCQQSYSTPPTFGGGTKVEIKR
notes: Fab on M13 phage
Turning to B13, the binding result is “binds”.

B14: SH28 (Fab, V domains shown)
VH: EVQLLESGGGGVQPGRSLRLSCAASGFTFNSYAMYWVRQPPGKGLEWVAAIWYDGSNKEYADFVKGRFTISRDNSKNTLSLQMNSLRDEDTAVYYCAREANLLRGWSRYYYGMDVWGQGTTVTVSS
VL: AELTQSPSSLSASVGDRVTITCRADQNIRRSLNWFQQKPGKAPKLLIYAASSLQSGVPSRFSGSGSGTDFTLTISSLQPEDFATYYCQQSSSTPWTFGRGTKVEIKR
notes: Fab on M13 phage
Regarding B14, the binding result is “binds”.

B15: SH50 (Fab, V domains shown)
VH: EVQLLESGGGGVQPGRSLRLSCAASGFTFNSYAMYWVRQPPGKGLEWVAAIWYDGSNKEYADFVKGRFTISRDNSKNTLSLQMNSLRDEDTAVYYCAREANLLRGWSRYYYGMDVWGQGTTVTVSS
VL: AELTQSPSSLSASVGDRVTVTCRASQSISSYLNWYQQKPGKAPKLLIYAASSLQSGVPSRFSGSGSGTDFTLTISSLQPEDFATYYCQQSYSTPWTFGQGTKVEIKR
notes: Fab on M13 phage
For B15, the binding result is reported as “binds”.

B16: SH32 (Fab, V domains shown)
VH: EVQLLESGGGVVQPGRSLRLSCEASKFTLYNYGMHWVRQAPGKGLEWVAFIWFDGSNKYYEDSVKGRFTVSRDNSKNTLYLQMNSLRAEDTAVYYCARELSKKVALSRYYYYMDVWGQGTTVTVSS
VL: AELTQEPSLTVSPGGTVTLTCASSTGAVTSRYFPNWFQQKPGQAPRALIYGSNNKHSWTPARFSGSLLGGKAALTLSGVQPEDEAEYYCLLFYAGAWAFGGGTKLTVL
notes: Fab on M13 phage
Regarding B16, the binding result is given as “binds”.

B17: SH36 (Fab, V domains shown)
VH: EVQLLESGGGVVQPGRSLRLSCEASKFTLYNYGMHWVRQAPGKGLEWVAFIWFDGSNKYYEDSVKGRFTVSRDNSKNTLYLQMNSLRAEDTAVYYCAREGSKKVALSRYYYYMDVWGQGTTVTVSS
VL: AELTQSPSSLSASVGDRVTITCRASQSISSYLNWYQQKPGKSPKLLIYAASSLQSGVPSRFSGSGSGTDFTLTISSLQPEDFATYYCQQSYSTPPAFGPGTKVDIKR
notes: Fab on M13 phage
Take B17: the binding result was “binds”.

B18: SH10 (Fab, V domains shown)
VH: VQLLEESGGGVVQPGRSLRLSCAASGFTFSRNGMHWVRQAPGKGLEWVAFIWFDGSNKYYADSVKGRFTISRDNSKNTLYLQMNSLRADDTAVYYCAREEALFRGLTRWSYGMDVWGQGTTVSVSS
VL: AELQDPVVSVALGQTVRITCQGDGLRSYYASWYQQKPGQAPKLVMYGRNNRPSGIPGRFSGSSSGQTAALTITGTQAEDEADYYCQSRATSGNPVVFGGGTKLTVL
notes: Fab on M13 phage
In the case of B18, the binding result was “binds”.
